The values that follow come from paper PMC5037822, “Molecular and Biochemical Analysis of Two Rice Flavonoid 3’-Hydroxylase to Evaluate Their Roles in Flavonoid Biosynthesis in Rice Grain” (International Journal of Molecular Sciences, 2016).

Where a chain is given by its changes, count along the chain named. Names and notes keep the numbering of the source.

One data set has as its target T1, CYP75B4-HN (Oryza sativa, UniProt Q8LM92, H351Q).
T1 construct: full length, 535 residues, natural allele with Gln351, C-terminal V5 and 6xHis tags, yeast WAT11 cells with Arabidopsis reductase ATR1
T1 sequence (Q8LM92 1-535 H351Q): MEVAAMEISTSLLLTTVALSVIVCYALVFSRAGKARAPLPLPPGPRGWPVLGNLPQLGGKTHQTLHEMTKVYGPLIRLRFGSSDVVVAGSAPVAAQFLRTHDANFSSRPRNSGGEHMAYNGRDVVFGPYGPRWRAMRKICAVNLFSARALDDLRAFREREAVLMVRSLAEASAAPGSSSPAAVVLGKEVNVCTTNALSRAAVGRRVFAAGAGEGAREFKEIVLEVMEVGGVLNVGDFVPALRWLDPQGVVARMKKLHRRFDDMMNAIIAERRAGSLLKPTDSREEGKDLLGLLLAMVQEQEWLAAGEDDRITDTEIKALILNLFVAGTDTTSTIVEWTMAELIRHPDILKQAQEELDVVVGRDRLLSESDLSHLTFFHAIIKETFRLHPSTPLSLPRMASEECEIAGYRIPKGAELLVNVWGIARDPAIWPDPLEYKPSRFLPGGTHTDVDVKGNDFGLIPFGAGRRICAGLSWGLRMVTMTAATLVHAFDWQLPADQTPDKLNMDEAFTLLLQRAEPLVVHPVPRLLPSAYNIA
Put plainly: substrate feeding of induced yeast, HPLC of […]'-hydroxylated product. Type of data set: cell-based. The following applies: 50 μM substrate, whole yeast WAT11 culture, 28 °C, 7.5 h.

The target of another data set is T2, CYP75B4-JJJ (Oryza sativa, UniProt Q8LM92, E7V).
T2 construct: full length, 535 residues, natural allele with Val7, C-terminal V5 and 6xHis tags, yeast WAT11 cells with Arabidopsis reductase ATR1
T2 sequence (Q8LM92 1-535 E7V): T1 sequence (Q8LM92 1-535 H351Q) with E7V, Q351H
The description is as above. Type of data set: cell-based. The following applies: 50 μM substrate, whole yeast WAT11 culture, 28 °C, 7.5 h.

Substrate in data set [1]: O=c1c(O)c(-c2ccc(O)cc2)oc2cc(O)cc(O)c12
Description: cells, lysate or membranes. The following applies: 1 mM NADPH, 100 mM Tris pH 7.5, 30 °C. Type of data set: biochemical, Oryza sativa.

Substrate in data set [2]: O=c1cc(-c2ccc(O)cc2)oc2cc(O)cc(O)c12
Put plainly: cells, lysate or membranes. The following applies: 1 mM NADPH, 100 mM Tris pH 7.5, 30 °C.

Substrate in data set [3]: O=C1c2c(O)cc(O)cc2OC(c2ccc(O)cc2)C1O
Description: cells, lysate or membranes. Type of data set: biochemical, Oryza sativa. The following applies: 1 mM NADPH, 100 mM Tris pH 7.5, 30 °C, racemic substrate.

Substrate in data set [4]: O=C1CC(c2ccc(O)cc2)Oc2cc(O)cc(O)c21
Put plainly: cells, lysate or membranes. The following applies: 1 mM NADPH, 100 mM Tris pH 7.5, 30 °C, racemic substrate.

On to `O=c1cc(-c2ccc(O)cc2)oc2cc(O)cc(O)c12` [API, apigenin], for which the “substrate feeding of induced yeast, HPLC of 3'-hydroxylated product” value is “CYP75B4-IM, CYP75B4-HN, and CYP75B4-JJJ metabolized naringenin, apigenin, and kaempferol” on CYP75B4-HN; “CYP75B4-IM, CYP75B4-HN, and CYP75B4-JJJ metabolized naringenin, apigenin, and kaempferol” at CYP75B4-JJJ.
With `O=c1c(O)c(-c2ccc(O)cc2)oc2cc(O)cc(O)c12` [KAM, kaempferol], the “substrate feeding of induced yeast, HPLC of 3'-hydroxylated product” value on CYP75B4-HN is “CYP75B4-IM, CYP75B4-HN, and CYP75B4-JJJ metabolized naringenin, apigenin, and kaempferol”; on CYP75B4-JJJ, “CYP75B4-IM, CYP75B4-HN, and CYP75B4-JJJ metabolized naringenin, apigenin, and kaempferol”.

B1: CYP75B4-IM (Oryza sativa Japonica Group) (protein)
chain: T1 sequence (Q8LM92 1-535 H351Q) with Q351H
notes: full length, 535 residues, C-terminal V5 and 6xHis tags (pYES-DEST52), yeast WAT11 microsomes with Arabidopsis reductase ATR1
Consider B1, for which, in data set [1], the Michaelis constant (Km) amounted to 2.948 ± 0.330 µM and the Vmax was determined as 0.007 µM/min/mg. Besides, in data set [2], the Km amounted to 0.240 ± 0.042 µM and the maximal velocity (Vmax) came to 0.008 µM/min/mg.

B2: CYP75B3-IM (CYP75B3-JJJ) (Oryza sativa Japonica Group) (protein)
chain: MDVVPLPLLLGSLAVSAAVWYLVYFLRGGSGGDAARKRRPLPPGPRGWPVLGNLPQLGDKPHHTMCALARQYGPLFRLRFGCAEVVVAASAPVAAQFLRGHDANFSNRPPNSGAEHVAYNYQDLVFAPYGARWRALRKLCALHLFSAKALDDLRAVREGEVALMVRNLARQQAASVALGQEANVCATNTLARATIGHRVFAVDGGEGAREFKEMVVELMQLAGVFNVGDFVPALRWLDPQGVVAKMKRLHRRYDNMMNGFINERKAGAQPDGVAAGEHGNDLLSVLLARMQEEQKLDGDGEKITETDIKALLLNLFTAGTDTTSSTVEWALAELIRHPDVLKEAQHELDTVVGRGRLVSESDLPRLPYLTAVIKETFRLHPSTPLSLPREAAEECEVDGYRIPKGATLLVNVWAIARDPTQWPDPLQYQPSRFLPGRMHADVDVKGADFGLIPFGAGRRICAGLSWGLRMVTLMTATLVHGFDWTLANGATPDKLNMEEAYGLTLQRAVPLMVQPVPRLLPSAYGV
notes: full length, 526 residues, C-terminal V5 and 6xHis tags (pYES-DEST52), yeast WAT11 microsomes with Arabidopsis reductase ATR1
Take B2: the Km in data set [1] is reported as 0.110 ± 0.008 µM; in data set [3], 2.494 ± 0.350 µM; in data set [4], 0.286 ± 0.015 µM. The Vmax in data set [1] was 0.24 µM/min/mg; in data set [3], 0.43 µM/min/mg; in data set [4] it was 0.214 µM/min/mg.

B3: CYP75B3-HN (Oryza sativa Japonica Group; R27H) (protein)
chain: B2 chain with R27H
notes: full length, 526 residues, natural allele with His27, C-terminal V5 and 6xHis tags, yeast WAT11 microsomes with Arabidopsis reductase ATR1
In the case of B3, in data set [3], the Km came out at 1.034 ± 0.107 µM and the Vmax came out at 0.281 µM/min/mg. Moreover, in data set [4], the Km was 0.108 ± 0.009 µM and the maximal velocity (Vmax) was 0.193 µM/min/mg.

What is called Km is the substrate concentration at which the rate is half of its maximum. In general, Vmax refers to the rate approached at saturating substrate.
